# Assay results: PMC11955550
# Experiments:
# [1] = molecular target: α-synuclein (αSyn) amyloid fibrils (UniProt P37840); test: co-sedimentation; αSyn fibrils 20 µM (monomer) with DNAJB1 8 µM in low-salt HD buffer (50 mM HEPES, 2 mM DTT, pH 7.50), 30 min at 30 °C; 17,000 g 30 min; pellet and supernatant on SDS-PAGE, densitometry
# [2] = molecular target: α-synuclein (αSyn) amyloid fibrils (UniProt P37840); test: co-sedimentation; αSyn fibrils 20 µM (monomer) with DNAJB1 8 µM in HKMD buffer (50 mM HEPES, 50 mM KCl, 5 mM MgCl2, 2 mM DTT, pH 7.50), 30 min at 30 °C; 17,000 g 30 min; pellet and supernatant on SDS-PAGE, densitometry
substance,measurement,setting,value
wild-type DNAJB1 (from UniProt P25685 1-340) (natural protein),percent bound,[1],80%
same,percent bound,[2],40%
